In PMC3958483, “Fine Specificity and Molecular Competition in SLAM Family Receptor Signalling” (PLoS ONE, 2014):

B1: SHIP-1: SH2 domain containing phosphatase (protein)
chain: MVPCWNHGNITRSKAEELLSRTGKDGSFLVRASESISRAYALCVLYRNCVYTYRILPNEDDKFTVQASEGVSMRFFTKLDQLIEFYKKENMGLVTHLQYPVPLEEEDTGDDPEEDTVESVVSPPELPPRNIPLTASSCEAKEVPFSNENPRATETSRPSLSETLFQRLQSMDTSGLPEEHLKAIQDYLSTQLAQDSEFVKTGSSSLPHLKKLTTLLCKELYGEVIRTLPSLESLQRLFDQQLSPGLRPRPQVPGEANPINMVSKLSQLTSLLSSIEDKVKALLHEGPESPHRPSLIPPVTFEVKAESLGIPQKMQLKVDVESGKLIIKKSKDGSEDKFYSHKKILQLIKSQKFLNKLVILVETEKEKILRKEYVFADSKKREGFCQLLQQMKNKHSEQPEPDMITIFIGTWNMGNAPPPKKITSWFLSKGQGKTRDDSADYIPHDIYVIGTQEDPLSEKEWLEILKHSLQEITSVTFKTVAIHTLWNIRIVVLAKPEHENRISHICTDNVKTGIANTLGNKGAVGVSFMFNGTSLGFVNSHLTSGSEKKLRRNQNYMNILRFLALGDKKLSPFNITHRFTHLFWFGDLNYRVDLPTWEAETIIQKIKQQQYADLLSHDQLLTERREQKVFLHFEEEEITFAPTYRFERLTRDKYAYTKQKATGMKYNLPSWCDRVLWKSYPLVHVVCQSYGSTSDIMTSDHSPVFATFEAGVTSQFVSKNGPGTVDSQGQIEFLRCYATLKTKSQTKFYLEFHSSCLESFVKSQEGENEEGSEGELVVKFGETLPKLKPIISDPEYLLDQHILISIKSSDSDESYGEGCIALRLEATETQLPIYTPLTHHGELTGHFQGEIKLQTSQGKTREKLYDFVKTERDESSGPKTLKSLTSHDPMKQWEVTSRAPPCSGSSITEIINPNYMGVGPFGPPMPLHVKQTLSPDQQPTAWSYDQPPKDSPLGPCRGESPPTPPGQPPISPKKFLPSTANRGLPPRTQESRPSDLGKNAGDTLPQEDLPLTKPEMFENPLYGSLSSFPKPAPRKDQESPKMPRKEPPPCPEPGILSPSIVLTKAQEADRGEGPGKQVPAPRLRSFTCSSSAEGRAAGGDKSQGKPKTPVSSQAPVPAKRPIKPSRSEINQQTPPTPTPRPPLPVKSPAVLHLQHSKGRDYRDNTELPHHGKHRPEEGPPGPLGRTAMQ
B2: SHIP-2: SH2 domain containing phosphatase (protein)
chain: MASACGAPGPGGALGSQAPSWYHRDLSRAAAEELLARAGRDGSFLVRDSESVAGAFALCVLYQKHVHTYRILPDGEDFLAVQTSQGVPVRRFQTLGELIGLYAQPNQGLVCALLLPVEGEREPDPPDDRDASDGEDEKPPLPPRSGSTSISAPTGPSSPLPAPETPTAPAAESAPNGLSTVSHDYLKGSYGLDLEAVRGGASHLPHLTRTLATSCRRLHSEVDKVLSGLEILSKVFDQQSSPMVTRLLQQQNLPQTGEQELESLVLKLSVLKDFLSGIQKKALKALQDMSSTAPPAPQPSTRKAKTIPVQAFEVKLDVTLGDLTKIGKSQKFTLSVDVEGGRLVLLRRQRDSQEDWTTFTHDRIRQLIKSQRVQNKLGVVFEKEKDRTQRKDFIFVSARKREAFCQLLQLMKNKHSKQDEPDMISVFIGTWNMGSVPPPKNVTSWFTSKGLGKTLDEVTVTIPHDIYVFGTQENSVGDREWLDLLRGGLKELTDLDYRPIAMQSLWNIKVAVLVKPEHENRISHVSTSSVKTGIANTLGNKGAVGVSFMFNGTSFGFVNCHLTSGNEKTARRNQNYLDILRLLSLGDRQLNAFDISLRFTHLFWFGDLNYRLDMDIQEILNYISRKEFEPLLRVDQLNLEREKHKVFLRFSEEEISFPPTYRYERGSRDTYAWHKQKPTGVRTNVPSWCDRILWKSYPETHIICNSYGCTDDIVTSDHSPVFGTFEVGVTSQFISKKGLSKTSDQAYIEFESIEAIVKTASRTKFFIEFYSTCLEEYKKSFENDAQSSDNINFLKVQWSSRQLPTLKPILADIEYLQDQHLLLTVKSMDGYESYGECVVALKSMIGSTAQQFLTFLSHRGEETGNIRGSMKVRVPTERLGTRERLYEWISIDKDEAGAKSKAPSVSRGSQEPRSGSRKPAFTEASCPLSRLFEEPEKPPPTGRPPAPPRAAPREEPLTPRLKPEGAPEPEGVAAPPPKNSFNNPAYYVLEGVPHQLLPPEPPSPARAPVPSATKNKVAITVPAPQLGHHRHPRVGEGSSSDEESGGTLPPPDFPPPPLPDSAIFLPPSLDPLPGPVVRGRGGAEARGPPPPKAHPRPPLPPGPSPASTFLGEVASGDDRSCSVLQMAKTLSEVDYAPAGPARSALLPGPLELQPPRGLPSDYGRPLSFPPPRIRESIQEDLAEEAPCLQGGRASGLGEAGMSAWLRAIGLERYEEGLVHNGWDDLEFLSDITEEDLEEAGVQDPAHKRLLLDTLQLSK

Experiment: Pull-down with phosphorylated CD244 ITSM1 from NK cell lysates, LC-MS/MS
Assay type: binding
Details: human NK cell lysates; compared with control phosphopeptide SHIP-1 Y865
Protocol: For pull-down of associated proteins, streptavidin Sepharose (GE Healthcare) was pre-coated with saturating amounts of peptide or EAT-2. NK92 cells (4×10^8) were treated with 500 μM pervanadate for 15 minutes, then lysed in PBS, 1% Triton X-100, 1 mM sodium orthovanadate in the presence of mammalian protease inhibitor solution (Sigma). Lysates were pre-cleared by centrifugation, followed by incubation with streptavidin Sepharose. Peptide or EAT-2-coated streptavidin beads were incubated with NK92 lysates for 2 hours at 4°C with rotation. Beads were washed once with 15 ml ice cold PBS/1% (v/v) Triton X-100. Bound protein was eluted using 100 mM glycine-HCl pH 2.5.
Protein samples were prepared for mass spectrometry as described previously. Briefly, eluted proteins were spun onto the membranes of Vivacon 500 filters (10,000 MWCO – Sartorius). Membranes were washed once with PBS then proteins were denatured with 8 M urea, reduced with 10 mM DTT in 25 mM ammonium bicarbonate buffer, followed by alkylation with 50 mM iodoacetamide. Proteins were then digested overnight with trypsin. Tryptic peptides were then eluted from the membrane and analyzed on an Ultimate 3000 HPLC-coupled Orbitrap XL mass spectrometer. Proteins were identified by liquid chromatography-coupled tandem mass-spectrometry (LC-MS/MS). Raw data files were converted to mzXML format using ReADW (v. 4.2.1) and submitted to the Central Proteomics Facilities Pipeline for database comparison and peptide identification. Searching against the International Protein Index (IPI) human protein sequence database for protein identification, protein and peptide hits were statistically validated by applying a 1% false discovery rate (FDR) by searching against a concatenated target/decoy database. Datasets were searched with variable peptide modifications for phosphotyrosine, phosphoserine, phosphothreonine, oxidation of methionine and deamination.
Protein identification data were exported into ProteinCenter (v3.8.3013 – Thermo Fisher) for filtering and annotation. Results were filtered to remove any proteins with less than 3 unique peptides, less than 10 percent sequence coverage, or median protein probability scores less than 0.5. To establish sample specificity, any protein with at least 10-fold greater sequence coverage in one sample compared with the other was considered to be specific for that sample.
Similarly, differences in specificity of inhibitory SH2 domain containing proteins for ITSMs are relevant to understanding mechanisms of inhibition by ITSMs. We focused on CD244 ITSMs to establish general paradigms.

Row | Molecule | pull-down by CD244 ITSM1
1 | B1 | pulled down by the ITSM peptide
2 | B2 | pulled down by the ITSM peptide
